Laboratory results as given in US20160060360A1.
pKd: −log10 of the molar value.

Assays:
FcγRIIaR = test: SPR
FcγRIIIaF = test: SPR
[1] = biological target: recombinant human FcγRIIb protein (R&D Systems) (human) (UniProt P31994); test: Biacore, 'according to the data herein'
[2] = biological target: recombinant human FcγRIIb protein (R&D Systems) (human) (UniProt P31994); test: SPR (Biacore 3000), antibody captured on protein A/G chip, FcγR injected, 1:1 Langmuir fit

recombinant human FcγRIIb protein (R&D Systems) (human), sequence (P31994 46-217 limits assumed): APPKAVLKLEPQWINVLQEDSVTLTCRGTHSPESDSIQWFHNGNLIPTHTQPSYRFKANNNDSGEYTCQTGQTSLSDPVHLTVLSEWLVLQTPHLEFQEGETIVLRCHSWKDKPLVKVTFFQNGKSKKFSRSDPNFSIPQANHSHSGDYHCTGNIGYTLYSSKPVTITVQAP

| Substance | pKd (FcγRIIaR) | further results |
| --- | --- | --- |
| A327D | 6.27 |  |
| A327G | 5.57 |  |
| A327N | 5.85 |  |
| A327Q | 5.87 |  |
| D265E | 5.55 |  |
| H268D | 6.69 |  |
| H268E | 6.57 |  |
| H268N | 6.32 |  |
| H268Q | 6.26 |  |
| L328F | 6.78 | pKd (FcγRIIIaF): 5.29 |
| P329E | 5.00 |  |
| S239D/S267E/L328F | 8.69 |  |
| S239E | 5.90 |  |
| S239N | 6.00 |  |
| S239Q | 6.00 |  |
| S267A | 6.70 |  |

| Substance | pKd (FcγRIIaR) | further results |
| --- | --- | --- |
| S267D | 7.02 |  |
| S267E | 7.54 |  |
| S267E/A327D | 7.29 |  |
| S267E/A327E | 7.53 |  |
| S267E/H268E | 7.69 |  |
| S267E/H268E/L328F | 8.47 |  |
| S267E/L328H | 6.73 |  |
| S267E/L328I | 7.94 |  |
| S267E/L328Y | 8.15 |  |
| S267E/N325L | 7.68 |  |
| S267G | 6.29 |  |
| S298D | 6.23 |  |
| V266D | 5.91 |  |
| V266M | 6.56 |  |
| V266M/S267E | 7.55 |  |
| anti-CD19 antibody HuAM4G7, WT (native) IgG1 |  | pKd [1]: 5.70; pKd [2]: 5.74 |
